Measured values published in patent US9969784B2, “Compositions and methods for modulation of immune function” (THE CHILDREN'S HOSPITAL OF PHILADELPHIA, priority 2013, dated 2018).

Tests used:
Itch = biological target: T1, Itch (Homo sapiens, UniProt Q96J02); assay: ubiquitin charging assay (cell free), Itch; assay type: biochemical; settings: E1, E2, ubiquitin, ATP and Mg++, then EDTA, Itch added with the substance
T1 construct: made in house
Experimental: FIGS. 1A-1D. Ndfip1 and Ndfip2 promote ubiquitin charging of Itch. FIG. 1A: E1, E2, ubiquitin, ATP and Mg++ were incubated together to prepare the E2 for ubiquitin transfer. EDTA was added to prevent further transfer of ubiquitin from E1 to E2. This ensures that only a single ubiquitin will be transferred. Itch was then added to the reaction with or without Ndfip1 or Ndfip2. […] FIG. 1C: Schematic diagram of auto-inhibition by Itch and activation by Ndfip1. FIG. 1D: Ndfip peptide mimics therapeutically activate
(§1) There are 9 members of the Nedd4-family of E3 ubiquitin ligases. These ligases are unusual in that there is a high degree of sequence similarity. All family members are composed of a HECT domain (the catalytic subunit), 2-4 WW domains, and a single C2 domain. Auto-inhibition of family members has been described by others, and different mechanisms of auto-inhibition have been proposed. […] We have devised a new way to look at auto-inhibition, namely by using a ubiquitin charging assay which is the initial event in activating Nedd4-family E3 ubiquitin ligases. Ubiquitin charging occurs when an E2 ubiquitin conjugating enzyme transfers ubiquitin to the catalytic cysteine of the Nedd4-family E3 ligase. […] We have determined that Ndfip1 and Ndfip2 are not required for Itch to bind the E2, as association between E2 and Itch occur in the absence of Ndfip1 and Ndfip2. […]

Nedd4 = assay: ubiquitin charging assay, Nedd4; assay type: biochemical; settings: carried out for 30 seconds
Experimental: FIG. 8. Multiple Nedd4-family members likely share this mechanism of auto-inhibition and relief by Ndfip1 and Ndfip2. Nedd4 and Itch were expressed, purified and tested in the ubiquitin charging assay in the presence or absence of Ndfip1 or Ndfip2 as shown. Neither Itch nor Nedd4 were charged with ubiquitin in the assay when Ndfip1 or Ndfip2 were omitted from the assay. These assays were carried out for 30 seconds.
as §1, with “ligase. This event is absolutely required for catalytic activity of the E3 ligase.” for “ligase.”

T1 sequence (Q96J02 whole entry, species assumed): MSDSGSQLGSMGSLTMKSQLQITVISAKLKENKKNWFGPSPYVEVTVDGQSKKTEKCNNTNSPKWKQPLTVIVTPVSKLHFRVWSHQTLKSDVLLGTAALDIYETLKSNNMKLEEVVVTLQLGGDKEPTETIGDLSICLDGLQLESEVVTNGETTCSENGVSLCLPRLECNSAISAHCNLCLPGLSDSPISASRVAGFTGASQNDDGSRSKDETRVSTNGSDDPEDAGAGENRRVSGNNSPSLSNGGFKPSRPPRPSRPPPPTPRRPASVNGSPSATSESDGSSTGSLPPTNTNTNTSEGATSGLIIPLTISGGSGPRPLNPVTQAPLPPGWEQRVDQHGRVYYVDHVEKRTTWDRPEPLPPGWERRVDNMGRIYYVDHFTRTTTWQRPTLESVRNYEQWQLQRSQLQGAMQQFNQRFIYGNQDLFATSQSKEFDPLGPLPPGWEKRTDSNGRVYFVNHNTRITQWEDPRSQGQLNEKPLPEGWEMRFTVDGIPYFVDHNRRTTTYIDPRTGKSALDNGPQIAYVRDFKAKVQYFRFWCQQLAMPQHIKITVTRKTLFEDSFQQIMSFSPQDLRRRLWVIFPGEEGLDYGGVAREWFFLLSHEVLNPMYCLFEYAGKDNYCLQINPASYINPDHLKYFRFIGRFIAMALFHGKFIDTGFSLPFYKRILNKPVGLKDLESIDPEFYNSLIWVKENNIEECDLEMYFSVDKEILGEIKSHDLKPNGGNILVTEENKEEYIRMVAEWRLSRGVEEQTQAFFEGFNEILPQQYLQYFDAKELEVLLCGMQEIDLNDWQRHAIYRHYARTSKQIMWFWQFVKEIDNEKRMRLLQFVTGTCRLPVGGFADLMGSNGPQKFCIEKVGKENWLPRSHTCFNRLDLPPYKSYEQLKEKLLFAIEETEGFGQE
Sequence of Nedd4 (P46934 whole entry, species assumed): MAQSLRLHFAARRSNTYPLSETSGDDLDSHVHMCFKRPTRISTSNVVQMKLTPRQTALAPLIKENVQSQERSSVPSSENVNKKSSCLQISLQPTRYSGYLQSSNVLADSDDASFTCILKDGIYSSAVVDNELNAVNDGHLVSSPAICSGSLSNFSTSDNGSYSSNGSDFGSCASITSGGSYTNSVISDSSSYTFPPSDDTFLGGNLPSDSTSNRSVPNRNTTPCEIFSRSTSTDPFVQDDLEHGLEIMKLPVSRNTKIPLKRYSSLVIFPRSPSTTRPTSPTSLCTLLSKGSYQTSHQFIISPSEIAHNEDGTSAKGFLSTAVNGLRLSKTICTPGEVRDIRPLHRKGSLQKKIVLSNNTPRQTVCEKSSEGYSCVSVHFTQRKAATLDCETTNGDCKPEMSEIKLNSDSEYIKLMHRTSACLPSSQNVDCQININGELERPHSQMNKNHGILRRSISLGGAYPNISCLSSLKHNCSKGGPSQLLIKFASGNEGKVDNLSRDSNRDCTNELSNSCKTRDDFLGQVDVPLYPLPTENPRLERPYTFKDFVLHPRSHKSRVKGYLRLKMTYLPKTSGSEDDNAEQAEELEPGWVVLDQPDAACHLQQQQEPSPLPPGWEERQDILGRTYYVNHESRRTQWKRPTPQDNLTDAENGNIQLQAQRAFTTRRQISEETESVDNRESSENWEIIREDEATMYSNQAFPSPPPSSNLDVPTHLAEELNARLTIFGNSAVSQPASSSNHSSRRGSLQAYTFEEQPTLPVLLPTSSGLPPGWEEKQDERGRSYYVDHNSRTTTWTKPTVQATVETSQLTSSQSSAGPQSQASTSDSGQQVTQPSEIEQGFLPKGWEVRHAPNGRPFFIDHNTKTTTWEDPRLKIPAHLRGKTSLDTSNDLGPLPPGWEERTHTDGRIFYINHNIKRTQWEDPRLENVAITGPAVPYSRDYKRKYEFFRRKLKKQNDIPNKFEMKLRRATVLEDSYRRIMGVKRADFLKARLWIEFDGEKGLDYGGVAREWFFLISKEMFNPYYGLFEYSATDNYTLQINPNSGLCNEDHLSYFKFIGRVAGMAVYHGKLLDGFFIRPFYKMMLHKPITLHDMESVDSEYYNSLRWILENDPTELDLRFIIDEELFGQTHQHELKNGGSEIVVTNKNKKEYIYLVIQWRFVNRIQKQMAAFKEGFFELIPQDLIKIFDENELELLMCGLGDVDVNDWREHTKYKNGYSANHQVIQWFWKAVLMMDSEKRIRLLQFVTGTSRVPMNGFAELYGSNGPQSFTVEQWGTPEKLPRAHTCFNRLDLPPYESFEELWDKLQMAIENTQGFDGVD

B1: Ndfip2: adaptor of the Ndfip family that relieves auto-inhibition of Nedd4-family E3 ligases (protein, UniProt Q9NV92 1-336, looked up)
NEDD4 family-interacting …: MARRRSQRVCASGPSMLNSARGAPELLRGTATNAEVSAAAAGATGSEELPPGDRGCRNGGGRGPAATTSSTGVAVGAEHGEDSLSRKPDPEPGRMDHHQPGTGRYQVLLNEEDNSESSAIEQPPTSNPAPQIVQAASSAPALETDSSPPPYSSITVEVPTTSDTEVYGEFYPVPPPYSVATSLPTYDEAEKAKAAAMAAAAAETSQRIQEEECPPRDDFSDADQLRVGNDGIFMLAFFMAFIFNWLGFCLSFCITNTIAGRYGAICGFGLSLIKWILIVRFSDYFTGYFNGQYWLWWIFLVLGLLLFFRGFVNYLKVRNMSESMAAAHRTRYFFLL
ubiquitin charging of Itch (Itch): ubiquitin charging of Itch is observed
relief of Nedd4 auto-inhibition (Nedd4): auto-inhibition was relieved
